This is an account of results in the nanobody polyreactivity screen of Harvey et al. (2022).

This series in a line: yeast display, Sf9 membrane polyspecificity reagent, FACS + sequencing; frameworks hold sequencing errors. In a few lines:
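A synthetic nanobody library was expressed on Saccharomyces cerevisiae BJ5465 by galactose induction for 36–48 hours. The library was stained for 1 hour at 4 °C with 10% biotinylated, detergent-solubilized Sf9 membrane reagent and enriched with streptavidin microbeads before FACS. Low and high (top ~1%) gates were set on anti-HA fluorescence for expression and streptavidin fluorescence for reagent binding, and each polyreactivity label reflects the gate of origin.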
As for “QVQLVESGGGLVQAGGSLRLSCAASGSIFYPNAMGWYRQAPGKERELVAAISIGGGRTYYADSVKGRFTISRDNAKNTVYLQMNSLKPEDTAVYYCAATRVDSDDRTRFYYWGQGTQVTVSS”, the “polyreactivity (PSR sort gate)” value is on record as “high polyreactivity”.
For the sequence “QVQLVESGGGLVQAGGSLRLSCAASGRTFRYNAMGSYRQAPGKERELVAAISGRGSSTYYADSVKGRFTISRDNAKNTVYLQMNSLKPEDTAVYYCAALPASVRRPGWHDYWGQGTQVTVSS”, the “polyreactivity (PSR sort gate)” value was “high polyreactivity”.
In the case of “QVQLVESGGGLVQAGGSLRLSCAASGFIFAVYAMGWYRQAPGKERELVARISSGRGSTYYADSVKGRFTISRDNAKNTVYFQMNSLKPEDTAVYYCAADPVHRFPGTGGYWGQGTQVTVSS” it was “low polyreactivity”; in that of “QVQLVESGGGLVQAGGSLRLSSAASGRIFRPYDMGWYRQAPGKERELVAAITQSGGITSYADSVKGRFTISRDNAMNTVYLQMNSLTPEDTAVYYCASTSRYTRSHYDWYDYWGQGTQVTVSS”, “low polyreactivity”.
In the case of “QVQLVESGGGLVQAGGSLRLICAASGRIFSTYAMGWYRQAPGKERELVAAINKIGGSTYYADSVKGRFTISRDNAKNTVYLQMNSLKPEDTAVYYCAADAPYYPVRRYYYWGQGTQVTVSS” it was “low polyreactivity”; in that of “QVQLVESGGGLVQARGSLRLSCAACGSTFYWYPLGWSRQAPGTERELVATLTSVGRTNYADSVKGRFTISRDNAKNSVYLQMNRLNPEDTAVYYCAASKARWPRGGSRGGMGYWGQGTQVTVSS”, “high polyreactivity”.
For the sequence “QDQHVESGGGLVQAGGSLRLSFADSGITFDYYAMGWYRQAPGKERELVAAISVSGGDTYYADSVKGRFTISRDNAKNTVYLQMNRLKPQDTSVYYCAAEEVSPRWYDYWGQGTQVTVSS”, the “polyreactivity (PSR sort gate)” value is on record as “low polyreactivity”.
On to “QVQLVESGGGLVQAGGRLRLSCAASGSIFFDYAMGWYRQAPGKERELVAAINSGGTTNYADSVKGRFTISRDNAKNTVYLQMKQPETGRYRGLLLQRLPGYIRWYRWYDYWGQGTQVTVSS”, for which the “polyreactivity (PSR sort gate)” value was “low polyreactivity”.
In the case of “QVQLVESGGGLVQAGGSLRLSCAASGLTFGDYAMGWYRQAPGKERELVAVISRSGGSTYYADSVKGRFTISRDNAKNTVYLQMNSLKTEDTAVYYCDKDAGLQKYHHDYWGQGTQVTVSS” it was “low polyreactivity”; in that of “QVQLVESGAGLVQAGGSLRLSCAASGFTFPYYAMGWYRQAPGKERELVAAINYSGSSTDYADSVKGRFTISRDNAKNTVYLQMNSLKPEDTAVYYCAATPAYYYQAVTEDDYWGQGTHVTVSS”, “high polyreactivity”.
For the sequence “QVQLVESGGGLVQAGGSLRLSCAASGRIFAGNAMGWYRQAPGKERELVAAISNGGSTYYADSVKGRFTISRDNAKNTVYLQMNSLKPEDTAVYYCNARTRLRKYQYYYWGQGTQVTVSS”, the “polyreactivity (PSR sort gate)” value is listed as “high polyreactivity”.
In the case of “QVQLVESGGGLVQAGGSLRLSCAASGFIFPFYAMGWYRQAPGKERELGASITWSGSTYADSVKGRFTISRDNAKNTVYLQMNSLKPEDTAVYYCNTDPRSVVGWYAYWGQGTQVTVSS” it was “low polyreactivity”; in that of “QVQLVESGGGLVQAGGSLRLSCAASGSIFDDYAMGWYRQAPGKERELVAAITSGGSTYYADSVKGRFTISRDNAKNTVYLQMTSLKPEDTAVYYRATRYHWSSTFAPVGAGRGGDSWGQGTQVTVSS”, “low polyreactivity”; in that of “QVQLVESGGGLVQAGGSLRLSCAASGSTFLVNGMGWYRQAPGKERELVAAISSGDGSTYYADSVKGRFTISRDNAKNTVYLQMNSLKPEDTAVYYCAVDCWWTGYDYWGQGTQVTVSS”, “low polyreactivity”.
The entry for “QVQLVESGGGLVQAGGSLRLSCAASGSIFYYYAMGWYRQAPGKEREFVAAITKRADRTYYADSVKGRFTISRDNAKNTVYLQMNSLKPEDTAVYYCNADFVWRNGYLGFYRYDYWGQGTQVTVSS” is “low polyreactivity”; for “QVQLVESGGGLVQAGGSLRLSCAASGRIFYSYAMGWYRQAPGKERELVAALYSDGSTDYADSVKGRFTISRDNAKNTVYLQMNSLTPEDTAVYFCAADWGWRYVLPVGWFRYGYWGQGTQVTVSS” it is “low polyreactivity”.
In the case of “QVLLVESGGGLVQAGGSLRLICAASGLIFFYYDMGWYRQAPGKERELVAAISQRGGSTYYADSLKGRFTISRDNEKNTVYLQMNSLKPEETAVYYCNVRSPASYRRYYWGQGTQVTVSS” it was “high polyreactivity”.
Take “QVQLVESGGGLVQAGGSLRLSCAASGFIFTDNAMGWYRQAPGKEREFVAAITYSGGSTYYADSVKGRFTISRDNAKNTVYLQMNSLKPEDTAVYYCNKDVFPAPGGVTAYEYEYWGQGTQVTVSS”: the “polyreactivity (PSR sort gate)” value is “low polyreactivity”.
For “QVQLVESGGGLVQAGGSLRLSCAASGITFRTYAMGWYRQAPGKERELVAAISSRGGSTYYADSVKGRFTISRDNAKNTVYLQMNSLKPEDTAVYYCNARDVRYYEYGYWGQGTQVTVSS”, the “polyreactivity (PSR sort gate)” value was “high polyreactivity”.
With “QVQLVASGGGLVQAGGSLRLSCAASGSTFGSNAMGWYRQAPGKERELVAPINSGDSTSYADSVKGRFTISRDNAKNTVYLQMNSLKPEDTAVYYCATRYYTFVWRHDYWGQGTQVTVSS”, the “polyreactivity (PSR sort gate)” value is “low polyreactivity”.
As to “QVQLVESGGGLVQAGGSLRLSCAASGSILHPNGMGWYRQAPGKERELVAAITINGDSTYYADSVKGRFTISRDNAKNTVYLQMNSLKPEDTAVYYFAVDGWPTGWYYYWGQGTQVTVSS”, the “polyreactivity (PSR sort gate)” value is reported as “low polyreactivity”.
Regarding “QVQLVESGGGLVQAGGSLRLSCAASGSTFFEYAMGWYRQAPGKVREFVAGISWSGGITYYADSVKGRFTISRDNAKNTVYLQMNSLKPEDTAVYYCATAGGDWYGVDYWGQGTQVTVSS”, the “polyreactivity (PSR sort gate)” value is listed as “low polyreactivity”.
The entry for “QVQLVESGGGLVQAGGSLRLSCAASGSILRSYAMGWYRQAPGKERELVAVINGSGGRTYYADSVKGRFTISRDNAKNTVYLQMNSLKPEDTAVYYCNKRYRFTGIRDPFDYWGQGTQVTVSS” is “low polyreactivity”.
As to “QVQLVESGGGLVKAGGSLRLSCAASGNIFYINTMGWYRQAPGKERELVAAIDASYGSTYYADSVKGRFTISRDNAKNTVYLQMNSLKPEDTAVYYCATSRGYDSVYYFYTLWYYYWVQGTQVTVSS”, the “polyreactivity (PSR sort gate)” value is listed as “low polyreactivity”.
In the case of “QGQLVESGGGLVQAGGSLRLTCSASGSTFDSYGMGWYRQAPGKERELVASISSRGGSTYYADSVKGRFTISRDTAKNTVYLQMNSLKPEDTAVYYCAADWLSWFHGYGMYYWGQGTQVTVSS” it was “low polyreactivity”; in that of “QVQLVESGGGLVQAGGSLRLSCAASGSTFSRYTMGWYRQAPGKERELVASITRGGSTNYADSVKGRFTISRDNAKNTVYLQMNSLKPEDTAVYYCAARTARVSRYDYWGQGTQVTVSS”, “high polyreactivity”.
The entry for “QVQLVESGGGLVQAGGSLRLSCAASGSTFAFYAMGWYRQAPGKERELVAAISFSGGSTYYADSVKGRFTISRDNAKNTVYLQMNSLKPEDTAVYYCNARYPNTRKYDYWGQGTQVTVSS” is “high polyreactivity”; for “QVQLVESGGGLVQAGGSLRLSCAASGRIFNYNVMGWYRQAPGKERELVASISYSSTRTYYADSVKGRFTISRDTAKNTVYLQMNSLKPEDTAVYYCNADYYFSSYRSTFDYWGQGTQVTVSS” it is “low polyreactivity”; for “LVQLQESGGGLVLAGGGLRLSCAASGNIFTYVIMGWYRQPPGKERELVAAITYGTITNYADSVKGPFTISRDNAKNTVYLQMNCLKPEDTAVYHCAVQSPRIEPRLYYWGQGTQVTVSS” it is “high polyreactivity”.
On to “QVQLVESGGALVQAGGTRRLSCAASASTYPYAMGWYRQDPAKERELVAAITWSGGNTYFADSVKGRFTISRDNAKNSVYLQMNSMKPEDTAFYYCAALIGYRVFRYNYWGQGTQLTVSS”, for which the “polyreactivity (PSR sort gate)” value is “high polyreactivity”.
For “QVQLVESGGGLVQAGGSLRLSCAASGFTLYRNAMGWYRQAPGKERELVAAITSSGGRTYYADSVKGRFTISRDNAKYTVYLQMNSLKPEVTAVYSCAADFGLGYYYWGQGTQVTVSS”, the “polyreactivity (PSR sort gate)” value was “high polyreactivity”.
As to “QVQLVESGGGLVQAGGSLRLSCAASGRIFRYYAMGWYSQAPGQDRELVAAISWSGGSTYYADSVKGRFTISRDKAKNTVYLQMHSLKPEDTAVYYCNKVPLGLEGDYWGQGTQVTVSS”, the “polyreactivity (PSR sort gate)” value was “high polyreactivity”.
The entry for “QVQLVESGGGLVQAGGSLRLSCAASGRIFRGNAMGWYRQAPGKERQLVADINRSGGSTYYADSVKGRFTISRDNAKNTVYLQMNSLKPEDTAVYYCNAKYRVPYAVGGDYGYWGQGTQVTVSS” is “high polyreactivity”.
In the case of “QVQLVESGGGLVQAGGSLRLSCAASGSTFVYNAMGSYRQAPGKEREFVAAISGSGGSTYYADSVKGRFTISRDNAKNTVYLQMNSLKPEDTAVYYCATAGRYGLYRTYPYRSKYDYWGQGTQVTVSS”, the “polyreactivity (PSR sort gate)” value is given as “high polyreactivity”.
In the case of “QVQLVESGRGLVQAGGSLRLSCAASGIIFTRYAMGWYRQAPGKERDLVAGISYSGSSTYYADSVKGRFTISRDNAKNTVYLQMNSLKPEDTAVYYCAAEFVTYYSSSKRAYYYWGQGTQVTVSS” it was “high polyreactivity”; in that of “QVQLVESGGGLVQAGGSLRLSCAASGRIFGEYALGWYRQDPGKERELVARISRSGGSTYADSVKGRFTISRDNAKNTVYFQMNSLKPEVTAVYYCNADAYGTPEFTSYAVRYDYWGQGTQVTVSS”, “low polyreactivity”; in that of “QVQLVESGGGLVQAGGSLRLSCAASGRTFYYNAMGWYRQAPGKERELVAAITSAGSTNYADSVKGRFTISRDNAKNTVYLQMNSLKPEDTAVYYCAARYFYRSAWGTFVKNDSWGQGTQVTVSS”, “high polyreactivity”.
In the case of “QVQLVESGGGLVQAGGSLRLSCAASGFIFRYYAMGWYRQAPGKERELVARINKSGGYTYYADSVKGRFTISRDNAKNTVYLQMNSLKPEDTAVYYCNRVRVFSVPFDYWGQGTQVTVSS”, the “polyreactivity (PSR sort gate)” value was “high polyreactivity”.
The entry for “QVQLVESGGGLFQAGGSLRLSCAASGFIFAWYAMGWSRQAPGKERELVATISSSGARTYYADSVKGRFTISRDNAKNTVYLQLNRLKPEDTAVYYCASVYSTLGVGYYYWGQGTQVTVSS” is “high polyreactivity”; for “QVQLVESGGGLVQAGGSLSLSCAAYGRTSPIYAMGWYRQAPGKERELVASITRCTRTNYADSVKGRFTISRDNAKNTVYLQMNSLKPEDTAVYYCAAVSYSYSLNAYDYWGQGTQVTVSS” it is “low polyreactivity”.
